Assays:
Settings in all cases: 20 nM; 72 h
[1] = system: MCF10A; assay: one-nucleolus phenotype percent effect (relative to siNT 0% and siNOL11 100%); higher = more cells with one nucleolus (ribosome biogenesis inhibition)
Method: (§1)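 After 72 h, cells were fixed and stained with Hoechst and anti-fibrillarin, and nucleoli per nucleus were counted with CellProfiler. Values are plate-adjusted percent effect for the one-nucleolus and 5+ nucleoli phenotypes, normalised to siNT (0%) and to the positive controls siNOL11 or siKIF11 (100%), as the mean of biological triplicates. Percent viability is the nuclei count relative to siNT.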

[2] = system: MCF10A; assay: 5+ nucleoli phenotype percent effect (relative to siNT 0% and siKIF11 100%); higher = more cells with five or more nucleoli
Method: as §1

[3] = system: MCF10A; assay: percent viability (nuclei count relative to siNT); higher = more viable cells
Method: as §1

Sequence | one-nucleolus phenotype percent effect [1] [%] | 5+ nucleoli phenotype percent effect [2] [%] | percent viability [3] [%]
AUGCGGACCUGGGUUAGCGGAGU [hsa-miR-4754] | 47.4 | -38.9 | 38.8
GAUAUCAGCUCAGUAGGCACCG [hsa-miR-3074-3p] | -9.52 | 2.53 | 25.1
AGAAGAAGGCGGUCGGUCUGCGG [hsa-miR-3185] | 33.8 | -27.8 | 29.1
AUAAUACAUGGUUAACCUCUUU [hsa-miR-655] | 4.84 | -21.2 | 118
UAGGGUACUCAGAGCAAGUUGU [hsa-miR-6841-5p] | -4.08 | 14.6 | 63.6
AUAUAAUACAACCUGCUAAGUG [hsa-miR-374b-5p] | -13.3 | 35.9 | 103
AUUGGGAACAUUUUGCAUGUAU [hsa-miR-450a-1-3p] | -29.7 | 24.1 | 95
UCAAAUGCUCAGACUCCUGUGGU [hsa-miR-105-5p] | -6.5 | -18 | 37.7
CACCCAGAUCUGCGGCCUAAU [hsa-miR-1295b-5p] | 34.4 | -30.7 | 29.9
AGGCGCACCCGACCACAUGC [hsa-miR-6722-5p] | 26.5 | -18.7 | 22.4
GCAGCAUUCAUGUCCC [hsa-miR-4310] | -11 | 17.2 | 62.6
CAAAGGCCACAUUCUCCUGUGCAC [hsa-miR-6768-3p] | 28 | -27.1 | 23.3
UGUAGAGCAGGGAGCAGGAAGCU [hsa-miR-4732-5p] | 6.48 | -0.0062 | 23.8
AUUCUAAUUUCUCCACGUCUUU [hsa-miR-576-5p] | 1.07 | 28.2 | 100
UAGGAUGGGGGUGAGAGGUG [hsa-miR-2392] | -3.85 | 17.7 | 50.4
UUCACAUUGUGCUACUGUCUGC [hsa-miR-130a-5p] | -14.6 | 19 | 124
CAACCACCACUGUCUCUCCCCAG [hsa-miR-6776-3p] | -24.4 | 48.4 | 91.3
AGAGAUUGGUAGAAAUCAGGU [hsa-miR-5186] | 28.7 | -25.3 | 33.8
CAUGGGAGUUCGGGGUGGUUGC [hsa-miR-6871-5p] | 14.1 | 5.7 | 25.6
CUGGGGGGAGGAGACCCUGCU [hsa-miR-7109-5p] | 29.9 | -2.63 | 38.9
UCCAUUACACUACCCUGCCUCU [hsa-miR-885-5p] | -5.62 | -8.23 | 71.4
UCAGGACACUUCUGAACUUGGA [hsa-miR-5000-3p] | -10.1 | 20.7 | 53.5
GGCCUUGUUCCUGUCCCCA [hsa-miR-4312] | 56 | -25.8 | 22.7
GCGACUCUGAAAACUAGAAGGU [hsa-miR-4431] | -23.7 | 34.2 | 82.9

Sequence | one-nucleolus phenotype percent effect [1] [%] | 5+ nucleoli phenotype percent effect [2] [%] | percent viability [3] [%]
CCAGACAGAAUUCUAUGCACUUUC [hsa-miR-1324] | -11 | 49.8 | 120
AUACAUGUCAGAUUGUAUGCC [hsa-miR-4666a-5p] | -5.95 | 3.52 | 52.7
CUGGGAGAAGGCUGUUUACUCU [hsa-miR-30c-2-3p] | 45.5 | -29.4 | 21.9
UGUGCAAAUCUAUGCAAAACUGA [hsa-miR-19a-3p] | -14.6 | 34.4 | 141
UUUCUGUCUUUUCUGGUCCAG [hsa-miR-4743-3p] | 57.9 | -25.7 | 17.7
UCCCUUCUUCCUGGGCCCUCA [hsa-miR-5088-3p] | -36.6 | 70.3 | 59.2
UUCUCGAGGAAAGAAGCACUUUC [hsa-miR-516a-5p] | -19.5 | 22.1 | 127
UCGGAUCCGUCUGAGCUUGGCU [hsa-miR-127-3p] | 14.4 | -26.8 | 41.5
UCAGGCCAGGCACAGUGGCUCA [hsa-miR-1972] | -4.54 | 17.7 | 30.6
UGCCUUCCUGUCUGUG [hsa-miR-4297] | 16.6 | -10.3 | 20.9
UGUGUUAGAAUAGGGGCAAUAA [hsa-miR-3152-3p] | 4.92 | -11.7 | 35.1
AAGGGGCAGGGACGGGUGGCCC [hsa-miR-6743-5p] | 1.94 | 0.112 | 29.4
CAAAGUGCCUCCCUUUAGAGUG [hsa-miR-519d] | -20.2 | 62.9 | 72.3
CCAGUUACCGCUUCCGCUACCGC [hsa-miR-935] | 15.8 | -23.4 | 59
AGAAGGCCUUUCCAUCUCUGU [hsa-miR-4493] | 41.7 | -36.6 | 45.9
CCAGGGGGAUGGGCGAGCUUGGG [hsa-miR-6798-5p] | -16.7 | 13.9 | 77.9
AUGACCUAUGAAUUGACAGAC [hsa-miR-215] | 45.7 | -16.4 | 29.2
AACUAGUAAUGUUGGAUUAGGG [hsa-miR-3923] | 43.2 | -20.8 | 21.9
AAAAGCUGGGCUGAGAGGCG [hsa-miR-4429] | 24.9 | -19.2 | 38.6
UUUGGUCCCCUUCAACCAGCUA [hsa-miR-133b] | 16.1 | -11.4 | 52.5
GAAUACUAAGUAAAAAAUCAGUA [hsa-miR-8084] | -33.5 | 66.7 | 215
UAGGAUUACAAGUGUCGGCCAC [hsa-miR-3159] | -5 | -4.52 | 44.9
AAAAACCACAAUUACUUUU [hsa-miR-548ap-3p] | 16.7 | -30.6 | 30.2
GGGGCUGGGCGCGCGCC [hsa-miR-4492] | 24.8 | -0.324 | 33.5
